Molecular target: latency-associated peptide (LAP) of TGFβ1 (human (endogenous in human skin fibroblasts)) (UniProt P01137)

## mature TGFβ1 ligand (from UniProt P01137 279-390)
  luciferase activity of mink lung TGFβ1 reporter cells given heat-treated (80 °C, 10 min) DOC-insoluble fractions of ML-II fibroblasts: 3 fold

Source: paper PMC7277838
